Tested on: SstI restriction endonuclease (Streptomyces stanford ATCC 29415)
Test: cleavage_in_vitro
Details: pSst105 crude extract; REact 2 buffer, 37 C, 1 h; assay substrate Ad-2 DNA per Example 1.7

Adenovirus-2 DNA
activity (units per g cells): > 400000
